Test results from doi:10.1101/525329.
Read-outs that look alike come from different tables or passages of the source.

Experiments:
Experiment in all cases: co-sedimentation
[1] = target: paclitaxel-stabilized microtubules (bovine brain tubulin) (bovine) (UniProt Q6B856)
[2] = target: paclitaxel-stabilized microtubules (bovine brain tubulin) (bovine) (UniProt Q6B856); remark: listed apart in the source
[3] = target: paclitaxel-stabilized microtubules (bovine brain tubulin) (bovine) (UniProt Q6B856); remark: listed apart in the source
[4] = target: paclitaxel-stabilized microtubules (bovine brain tubulin) (bovine) (UniProt Q6B856); remark: listed apart in the source
[5] = target: paclitaxel-stabilized microtubules (bovine brain tubulin) (bovine) (UniProt Q6B856); remark: listed apart in the source

paclitaxel-stabilized microtubules (bovine brain tubulin) (bovine), sequence (Q6B856 whole entry, looked up): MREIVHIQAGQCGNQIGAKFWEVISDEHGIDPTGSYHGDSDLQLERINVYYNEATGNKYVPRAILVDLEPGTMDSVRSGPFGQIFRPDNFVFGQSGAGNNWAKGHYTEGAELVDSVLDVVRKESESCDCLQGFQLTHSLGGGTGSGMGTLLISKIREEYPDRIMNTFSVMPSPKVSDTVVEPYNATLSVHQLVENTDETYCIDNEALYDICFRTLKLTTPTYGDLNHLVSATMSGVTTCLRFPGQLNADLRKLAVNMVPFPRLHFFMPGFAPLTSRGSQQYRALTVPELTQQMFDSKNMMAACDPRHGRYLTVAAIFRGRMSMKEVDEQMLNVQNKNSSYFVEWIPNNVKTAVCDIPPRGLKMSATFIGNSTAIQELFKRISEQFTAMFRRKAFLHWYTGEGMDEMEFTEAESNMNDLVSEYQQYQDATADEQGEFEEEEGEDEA

Kd [1]	stoichiometry N [1]	stoichiometry N (motor bound per tubulin dimer) [1]	Kd [2]	Kd [3]	stoichiometry N (motor per tubulin dimer) [1]	Kd [4]	Kd [5]	Substance
100 nM	1.4	1	2900 nM	3000 nM	–	–	–	Cin8-EL8 (tagless): monomeric Cin8 motor with the loop-8 insert of Eg5 (domain or fragment)
100 nM	–	–	–	–	1	100 nM	–	Eg5-CL8-MBP (MBP-His6-TEV-Eg5-CL8) (from UniProt P27895 261-359) (domain or fragment)
100 nM	1.3	–	–	–	–	–	440 nM	Eg5-KL8: monomeric Eg5 motor domain with the loop-8 insert of Kip1 (domain or fragment)
7 nM	2.2	–	–	–	–	–	–	wild type monomeric Cin8 motor domain with thioredoxin tag (Cin8-trx) (domain or fragment)
